Measurements reported in article PMC6460258.

How the values were obtained:
[1] = molecular target: GST-tagged Lcl (recombinant full length Lcl, 18 repeats) (Legionella pneumophila); test: SPR; Biacore X100; […] (100 nM) […]
[2] = molecular target: His-tagged full length Lcl (Legionella collagen-like protein) with 18 repeats (Legionella pneumophila serogroup 1, strain LU1536); test: SEC; […], PBS, 0.5 ml/min; […]

“His-tagged Lcl lacking the C-terminal domain (Lcl[change]) (domain or fragment)” was tested, and the Kd [1] was 123 nM.
Work on “His-tagged Lcl lacking the collagenous repeat domain (Lcl[change]) (domain or fragment)” yielded a Kd [1] of 1040 nM.
“His-tagged full length Lcl (Legionella collagen-like protein) with 18 repeats (natural protein)” was tested, and the Kd [1] was 28.7 nM and the stoichiometry N [2] was 3.
